# Measurements reported in patent US12103951B2, “Use of CGRP receptor antagonists in neuroprotection and neurological disorders” (priority 2016, dated 2024).
# Like-named read-outs stand apart in the source and are kept apart here. Marks after values point to notes of the source that are not given here.
# What was measured:
# [1] = 14-day subcutaneous rat study: mortality, clinical signs, body weight, feed consumption; assay type: in vivo, Sprague Dawley rats; conditions: s.c. daily 14 days
# Description: (§1) Sprague Dawley rats were administered the CGRP antagonist daily via the subcutaneous route for a period of 14 days, resulting in the surprising effect of LDL lowering. Fifty six animals (36 males and 20 females) were distributed into four groups (consisting each of 5 males and 5 females per group and 4 extra males each for testing group as backups). The groups were as follows: G1—Control, G2—Low dose—100 mcg/kg, G3—Intermediate dose—300 mcg/kg, G4—High dose—1000 mcg/kg.
# (§2) Rats from the treatment groups were dosed subcutaneously with CGRP receptor antagonists (SEQ ID NO: 1) reconstituted with normal saline at different dose levels per treatment group for 14 days. Control animals were dosed with the vehicle alone.
# (§3) The acclimatization period was, at a minimum, 7 days. For the randomization, animals were selected and grouped based on stratified randomization by using body weights one day before dosing (day 0) using an Excel program. The route of administration of the antagonist was by a subcutaneous method. The frequency of the administration was daily for fourteen days. The dose volume was set at 5 ml/kg of body weight. The duration of the treatment was fourteen days with administration occurring approximately at the same time each day.
# (§4) The following observations were recorded: • 1. […] Body Weight • Body weight was recorded on day 1, 7, 11 and 15. • 3. Feed Consumption • Feed consumption was recorded daily and reported weekly. • 4. Blood Collection and Laboratory Investigations • Blood samples for were collected from all animals on day 15. The animals were fasted overnight before blood sampling but allowed access to water ad libitum for hematology and biochemistry. Blood samples were drawn from the retro-orbital plexus using a micro-hematocrit heparinized glass capillary tube. Blood samples were centrifuged (3500 rpm) and after centrifugation plasma was separated for further analysis.
# [2] = Rat laser glaucoma model: weight of animals; assay type: in vivo, Wistar rats
# [3] = tested on: Total Cholesterol, Triglycerides, Low-density lipoprotein and High-density lipoprotein; assay type: in vivo, Sprague Dawley rats; design: HDL / LDL: unit not given here; conditions: for HDL / LDL / T. Chol / Trig: mean, n = 5; for effect on LDL levels in rats (words): normal rats, s.c. daily 14 days, especially male rats, every test dose 100 to 1000 mcg/kg
# Description: as §1, §2, §3
# While preparing the dose formulation, required quantities of test item (i.e. CGRP antagonist) was weighed separately. The required volume of normal saline was added to the test item. A clear solution was obtained after addition of normal saline to test item. The test item was administered subcutaneously at the desired dose level once daily for up to 14 days. Homogeneity of the test item in the vehicle was maintained during administration.
# as §4
# Total Cholesterol, Triglycerides, Low-density lipoprotein and High-density lipoprotein parameters are shown in Tables 4 and 5, for male and female rats, respectively. Data from the LDL analysis is shaded.
# retinal astrocytes = assay: Rat laser glaucoma model: total number of GFAP-immunoreactive cells (retinal astrocytes); assay type: in vivo, Wistar rats; conditions: between the groups (CGRP antagonist vs vehicle)
# Description: In this study, Wistar rats (n=12) were used for the experiments. The neuroprotective properties of compounds were investigated in a rat laser model of glaucoma. Rats were divided into two groups of six rats each. One group served as a placebo control receiving vehicle (NaCl) injections, and the other was treated with a peptide CGRP receptor antagonist (SEQ ID NO: 1). For all 12 rats, the contralateral, untreated eye served as a naïve undiseased control. The vehicle control and test compound (20 mg/kg) were administered systemically (IP) daily for the whole follow-up period of two weeks. The animals were sacrificed using transcardial perfusion. The retinal whole-mounts were then immuno-stained against retinal ganglion cell (RGC) marker Brn3a and astrocytic marker GFAP (glial fibrillary acidic protein). The number of Brn3a positive profiles was manually counted from retinal images taken from central and peripheral parts of retina. The total number of GFAP-immunoreactive cells (retinal astrocytes) was estimated using stereology. […]
# 1. Quantification of Brn3a and GFAP-positive cells from retinal whole mounts manually and using stereology.
# Retinal whole mounts were immuno-stained against RGC (Brn3a) and astrocytic (GFAP) antibodies and the number of cells was quantified either manually (Brn3a) or as previously described (Kalesnykas et al., 2008). […]
# [4] = female rats, 100 mcg/kg b.w. s.c. daily 14 days, day 15
# [5] = female rats, 300 mcg/kg b.w. s.c. daily 14 days, day 15
# [6] = female rats, 1000 mcg/kg b.w. s.c. daily 14 days, day 15
# [7] = male rats, 100 mcg/kg b.w. s.c. daily 14 days, day 15
# [8] = male rats, 300 mcg/kg b.w. s.c. daily 14 days, day 15
# [9] = male rats, 1000 mcg/kg b.w. s.c. daily 14 days, day 15
substance,measurement,setting,value
"NH2-Ala-Cys-Asp-Thr-Ala-Ala-Cys-Val-Leu-Gly-Arg-Leu-Ser-Gln-Glu-Leu-His-Arg-Leu-Gln-Thr-Tyr-Pro-Arg-Thr-Asn-Val-Gly-Ser-Lys-Ala-Phe-NH2 (H-ACDTAACVLGRLSQELHRLQTYPRTNVGSKAF-NH2; ends and bridges not checked) [SEQ ID NO: 1, peptide CGRP receptor antagonist]",food consumption,[1]; all study groups,normal
same,body weight among the groups,[1],no statistically significant difference
same,mortality or morbidity,"[1]; 100, 300, 1000 mcg/kg",no mortality or morbidity
same,clinical signs,"[1]; high dose = 1000 mcg/kg, all animals normalized from day 12",no clinical signs were observed during the entire study period except for four males from the high dose group that showed lethargy on day 10
same,difference in the weight between the groups,"[2]; Mann-Whitney U test, P>0.05",no significant difference
same,Baseline weight,"[2]; mean ± SD, baseline",538 ± 21 g
same,Weight prior to sacrifice,"[2]; mean ± SD, end of two-week study",524 ± 27 g
same,other non-cholesterol related clinical biochemistry parameters,"[3]; day 15, vs control, data not shown",none were significantly different from control
same,HDL,[3]; [4],59.00
same,LDL,[3]; [4],11.08
same,T. Chol,[3]; [4],84.20 mg/dL
same,Trig,[3]; [4],70.60 mg/dL
same,HDL,[3]; [5],61.60
same,LDL,[3]; [5],12.60
same,T. Chol,[3]; [5],91.00 mg/dL
same,Trig,[3]; [5],84.00 mg/dL
same,HDL,[3]; [6],54.80
same,LDL,[3]; [6],9.40
same,T. Chol,[3]; [6],80.60 mg/dL
same,Trig,[3]; [6],82.00 mg/dL
same,HDL,[3]; [7],51.60
same,LDL,[3]; [7],2.96
same,T. Chol,[3]; [7],78.00 mg/dL
same,Trig,[3]; [7],121.40* mg/dL
same,HDL,[3]; [8],46.00
same,LDL,[3]; [8],4.16
same,T. Chol,[3]; [8],69.60 mg/dL
same,Trig,[3]; [8],97.20 mg/dL
same,HDL,[3]; [9],37.00
same,LDL,[3]; [9],4.72
same,T. Chol,[3]; [9],58.20 mg/dL
same,Trig,[3]; [9],82.40 mg/dL
same,effect on LDL levels in rats (words),[3],lowered LDL concentrations in blood
same,effect on LDL levels in rats (words),[3]; listed as CGRP antagonist,LDL lowering
same,effect on LDL levels in rats (words),[3]; listed as CGRP receptor antagonist,substantial LDL lowering
same,effect on LDL levels in rats (words),[3]; listed as peptide CGRP antagonist,lowering the LDL levels
same,total number of retinal astrocytes,retinal astrocytes,no differences
